# Results from patent CN114149501A (TENCEL BIOMEDICINE CO LTD, dated 2022).
# B1: CR3#75/IgG4 (antibody, V domains shown)
# VH: EVQLVQSGAEVKKPGATVKISCKVSGYTFTDYYTHWVQQAPGKGLEWMGLVDPEGGETIYAEKFQGRVTITADASTDTAYMELSSLRSEDTAVYYCATGSFLAAPDYWGQGTTVTVSS
# VL: not shown
# notes: also called 抗C5抗体CR3#75; S125(38#)-3
# Assays:
# [1] = molecular target: T1, 人源重组C5蛋白 (Sino Biologica, Cat#13416-H18H) (human, UniProt P01031 19-1676); test: BLI (Octet), antibody on AHC sensor, C5 0.4688-30 nM; run no. 5
# T1 construct: also called 人源C5蛋白; 全长C5
# T1 sequence (P01031 19-1676 limits assumed): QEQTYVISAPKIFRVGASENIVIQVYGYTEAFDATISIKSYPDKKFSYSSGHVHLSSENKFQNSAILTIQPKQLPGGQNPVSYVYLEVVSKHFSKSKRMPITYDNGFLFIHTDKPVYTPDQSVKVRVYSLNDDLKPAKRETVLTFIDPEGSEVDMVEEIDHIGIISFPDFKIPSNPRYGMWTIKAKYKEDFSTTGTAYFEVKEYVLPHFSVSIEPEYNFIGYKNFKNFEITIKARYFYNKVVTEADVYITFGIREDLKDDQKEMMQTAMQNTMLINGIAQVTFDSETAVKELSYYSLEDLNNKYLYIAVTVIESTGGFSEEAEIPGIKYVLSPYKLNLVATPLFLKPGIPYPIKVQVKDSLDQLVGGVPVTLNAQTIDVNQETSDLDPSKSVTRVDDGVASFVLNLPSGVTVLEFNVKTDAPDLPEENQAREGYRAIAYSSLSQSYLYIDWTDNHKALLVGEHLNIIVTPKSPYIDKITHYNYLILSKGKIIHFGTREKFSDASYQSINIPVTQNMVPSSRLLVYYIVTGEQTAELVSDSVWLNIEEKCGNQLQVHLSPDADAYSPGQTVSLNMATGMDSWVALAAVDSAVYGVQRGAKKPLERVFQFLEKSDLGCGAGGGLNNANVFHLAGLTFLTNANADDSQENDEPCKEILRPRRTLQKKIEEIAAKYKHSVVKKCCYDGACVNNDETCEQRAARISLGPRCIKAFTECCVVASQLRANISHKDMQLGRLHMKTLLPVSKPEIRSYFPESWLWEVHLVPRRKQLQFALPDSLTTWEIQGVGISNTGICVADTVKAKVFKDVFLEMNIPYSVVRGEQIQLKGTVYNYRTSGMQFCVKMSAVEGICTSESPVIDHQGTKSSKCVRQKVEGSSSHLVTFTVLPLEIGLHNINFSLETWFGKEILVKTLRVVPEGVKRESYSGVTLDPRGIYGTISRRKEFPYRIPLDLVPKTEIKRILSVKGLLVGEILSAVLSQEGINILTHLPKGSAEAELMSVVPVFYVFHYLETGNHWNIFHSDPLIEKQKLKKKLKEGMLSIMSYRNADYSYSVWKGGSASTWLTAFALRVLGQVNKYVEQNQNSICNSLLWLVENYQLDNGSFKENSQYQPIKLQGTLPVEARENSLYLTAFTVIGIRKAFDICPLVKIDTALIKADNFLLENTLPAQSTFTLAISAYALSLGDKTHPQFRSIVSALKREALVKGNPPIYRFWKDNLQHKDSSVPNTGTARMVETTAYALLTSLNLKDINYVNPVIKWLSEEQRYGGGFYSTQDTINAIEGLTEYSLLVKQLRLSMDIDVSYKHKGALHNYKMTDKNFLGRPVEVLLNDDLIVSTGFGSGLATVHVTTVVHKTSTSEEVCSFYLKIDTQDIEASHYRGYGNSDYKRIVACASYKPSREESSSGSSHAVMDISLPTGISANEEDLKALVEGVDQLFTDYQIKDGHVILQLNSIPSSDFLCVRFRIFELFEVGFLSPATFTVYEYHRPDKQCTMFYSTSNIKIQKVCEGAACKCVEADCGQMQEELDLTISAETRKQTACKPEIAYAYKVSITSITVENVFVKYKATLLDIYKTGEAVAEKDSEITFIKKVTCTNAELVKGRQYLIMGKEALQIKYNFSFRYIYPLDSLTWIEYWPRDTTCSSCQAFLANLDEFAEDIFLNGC
# [2] = molecular target: T1, 人源重组C5蛋白 (Sino Biologica, …); test: BLI (Octet), antibody on AHC sensor, C5 0.4688-30 nM; run no. 3
# [3] = molecular target: T1, 人源重组C5蛋白 (Sino Biologica, …); test: BLI (Octet), antibody on AHC sensor, C5 0.4688-30 nM; run no. 2
# [4] = molecular target: T1, 人源重组C5蛋白 (Sino Biologica, …); test: BLI (Octet), antibody on AHC sensor, C5 0.4688-30 nM; run no. 4
# [5] = molecular target: T1, 人源重组C5蛋白 (Sino Biologica, …); test: BLI (Octet), antibody on AHC sensor, C5 0.4688-30 nM; run no. 1
binder,measurement,setting,value
B1,Kd,[1],0.72 nM
same,koff,[1],0.000309 s⁻¹
same,kon,[1],429000 M⁻¹ s⁻¹
same,Kd,[2],0.616 nM
same,koff,[2],0.000279 s⁻¹
same,kon,[2],452000 M⁻¹ s⁻¹
same,Kd,[3],0.614 nM
same,koff,[3],0.0003 s⁻¹
same,kon,[3],488000 M⁻¹ s⁻¹
same,Kd,[4],0.722 nM
same,koff,[4],0.000307 s⁻¹
same,kon,[4],425000 M⁻¹ s⁻¹
same,Kd,[5],0.366 nM
same,koff,[5],0.000151 s⁻¹
same,kon,[5],413000 M⁻¹ s⁻¹
